From publication PMC4200421, “A distinct tethering step is vital for vacuole membrane fusion” (eLife, 2014) come the findings set out here.

The assay deals with T1, Vam3p (vacuolar Qa-SNARE), on 3Q-SNARE proteoliposomes (S. cerevisiae, UniProt Q12241 1-283).
T1 construct: Vam3p, vacuolar Qa-SNARE of Saccharomyces cerevisiae; Bait of the co-immunoprecipitation (anti-Vam3p antibody); In every experiment Vam3p stood on the same proteoliposomes as the Qb-SNARE Vti1p and the Qc-SNARE Vam7p (3Q-RPLs); Constructs are in cited work; also called 3Q-RPLs; 3Q-SNAREs
T1 sequence (looked up): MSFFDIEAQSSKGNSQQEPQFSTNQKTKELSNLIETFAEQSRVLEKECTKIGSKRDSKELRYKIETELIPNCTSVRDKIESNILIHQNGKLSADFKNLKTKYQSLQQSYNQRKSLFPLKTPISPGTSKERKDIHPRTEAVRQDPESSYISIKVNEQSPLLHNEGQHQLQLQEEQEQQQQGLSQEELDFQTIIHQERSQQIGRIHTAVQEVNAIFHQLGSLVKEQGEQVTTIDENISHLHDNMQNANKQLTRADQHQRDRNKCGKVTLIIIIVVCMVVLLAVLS
Description: co-IP; 1R-RPLs, or soluble Nyv1p at 100 nM, with 3Q-RPLs (Vam3p, Vti1p, Vam7p); 40 µl reaction 40 min at 27°C with HOPS (100 nM) or its buffer; diluted 10-fold in RIPA buffer with affinity-purified anti-Vam3p antibody (50 µg/ml) and 10 µM GST-Nyv1p; protein A magnetic beads, 2 hr room temperature; immunoblot with anti-Nyv1p. Particulars: both partners purified. For orientation: Immunoblotting shows a protein as a band on a membrane.

B1: Soluble Nyv1p (sR), Nyv1(Δtm), Nyv1p(1-231) (domain or fragment, S. cerevisiae, UniProt Q12255 1-231, looked up)
chain: MKRFNVSYVEVIKNGETISSCFQPFQKNENYGTITSANEQITPVIFHNLIMDMVLPKVVPIKGNKVTKMSMNLIDGFDCFYSTDDHDPKTVYVCFTLVDMPKILPIRILSGLQEYESNATNELLSSHVGQILDSFHEELVEYRNQTLNSSGNGQSSNGNGQNTISDIGDATEDQIKDVIQIMNDNIDKFLERQERVSLLVDKTSQLNSSSNKFRRKAVNIKEIMWWQKVKN
notes: Nyv1p of Saccharomyces cerevisiae without its transmembrane anchor (Δtm); the methods name only Nyv1(Δtm); also called sNyv1p; recombinant soluble domain of Nyv1p; source: purified as GST-TEVsite-Nyv1(Δtm) as described (Thorngren et al., 2004), cleaved with TEV protease prior to use; not shown: GST, N-terminal, cleaved
Turning to B1, the binding result is reported as “binds”.

B2: Nyv1p (vacuolar R-SNARE), membrane-anchored, on R-SNARE proteoliposomes (natural protein, S. cerevisiae, UniProt Q12255 1-253, looked up)
chain: MKRFNVSYVEVIKNGETISSCFQPFQKNENYGTITSANEQITPVIFHNLIMDMVLPKVVPIKGNKVTKMSMNLIDGFDCFYSTDDHDPKTVYVCFTLVDMPKILPIRILSGLQEYESNATNELLSSHVGQILDSFHEELVEYRNQTLNSSGNGQSSNGNGQNTISDIGDATEDQIKDVIQIMNDNIDKFLERQERVSLLVDKTSQLNSSSNKFRRKAVNIKEIMWWQKVKNITLLTFTIILFVSAAFMFFYLW
notes: Nyv1p, vacuolar R-SNARE of Saccharomyces cerevisiae, membrane-anchored form; Schwartz and Merz, 2009; Zucchi and Zick, 2011 for the SNARE constructs; Exchanged into octylglucoside buffer before reconstitution; also called wild-type Nyv1p; 1R; source: pure recombinant protein, purified as described (cited work), reconstituted into proteoliposomes by detergent dialysis
Regarding B2, the binding result was “binds”.
